Data as given in the nanobody polyreactivity screen of Harvey et al. (2022).

Assay: yeast display, Sf9 membrane polyspecificity reagent, FACS + sequencing; frameworks hold sequencing errors
Outline: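 In a synthetic yeast display library (Saccharomyces cerevisiae BJ5465), nanobody expression was induced with galactose for 36–48 hours. FACS gates were set low and high (top ~1%) using anti-HA fluorescence for expression and streptavidin fluorescence for binding of the Sf9 membrane reagent. Each polyreactivity label is drawn from the gate of origin.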

| Sequence | polyreactivity (PSR sort gate) |
| --- | --- |
| QVQLVESGGGLVQAGGSLRLSCAASGFTFAYYAMGWYRQAPGKERELVADISSGGSTDYADSVKGRFTISRDNAKNTVYLQMNSLKPEDTAVYYCNAVVVRLWYDYDYWGQGTQVTVSS | low polyreactivity |
| QVQLVESGGGLVQAGGSLRLSCAASGFTFAYYAMGWYRQAPGKERELVASISYNGGITNYADSVKGRFTISRDNAKNTVYLQMNSLKPEDTSVYYCNAVPHYYWRFDYWGQGTQVTVSS | low polyreactivity |
| QVQLVESGGGLVQAGGSLRLSCAASGFTFAYYAMGWYRQAPGKERELVATITSGGRTYYADSVKGRFTISRDNAKNTVYLQMNSLKPEDTAVYYCAAAGKGRYHFRSTMDYWGQGTQVTVSS | high polyreactivity |
| QVQLVESGGGLVQAGGSLRLSCAASGFTFAYYTMGWYRQAPGKERELVAAISWSGSSTYYADSVKGRFTISRDNAKNTVYLQMNSLKPEDTAVYYCAAKGWYVQHFKRGLYNYWGQGTQVTVSS | high polyreactivity |
| QVQLVESGGGLVQAGGSLRLSCAASGFTFDANAIGWYRQAPGKERELVAAISSSGGSTYYADSVKGRFTISRDNAKNTVYLQMNSLKPEDTAVYYCAADLAPGRHDYWGQGTQVTVSS | high polyreactivity |
| QVQLVESGGGLVQAGGSLRLSCAASGFTFDANAMGWYRQAPGKERELVAAINWSGGSTYYADSVKGRFTISRDNAKYTVYLQMNSLKPEDTAVYYCAAELWGLFDYWGQGTQVTVSS | low polyreactivity |
| QVQLVESGGGLVQAGGSLRLSCAASGFTFDAYDMGWYRQAPGKERELVASITGGGSTYYADSVKGRFTISRDNAKNTVYLQMNSLKPEDTAVYYCAADLYFEGYNRYYHISGFDYWGQGTQVTVSS | low polyreactivity |
| QVQLVESGGGLVQAGGSLRLSCAASGFTFDDYTMGWYRPAPGKEREFVAAISSSGGSTYYADSVKGRFTISRDNAKNTVYLQMNSLKPVDTAVYYCAADARYYDYYEYDYWGQGTQVTVSS | high polyreactivity |
| QVQLVESGGGLVQAGGSLRLSCAASGFTFDFYAMGWYRQAPGKERELVAAISRRGGRTSYADSVKGRFTISRDNAKNTVYLQMNSLKPEDTAVYYCAAASLGGDGLVAYYYWGQGTQVTVSS | high polyreactivity |
| QVQLVESGGGLVQAGGSLRLSCAASGFTFDFYVMGWYRQAPGKERELVAAISWDGGTTYYADSVKGRFTISRDNAKNTVYLQMNSLKPEDTAVYYCAADDWVYVPTGAWYLYEYWGQGTQVTVSS | high polyreactivity |
| QVQLVESGGGLVQAGGSLRLSCAASGFTFDGYAMGWDRQAPGKERELVAAISGGGSTYYADSVKGRFTISRDNAKNTVYLQMNSLKPEDTAVYYCAVVYRYRTRSRSYFLPFDYWGQGTQVTVSS | high polyreactivity |
| QVQLVESGGGLVQAGGSLRLSCAASGFTFDGYGMGWYRHAPGKERELVAVITSGGSTKYADSVKGRFTISRDNAKNTVYLQMNSLKPEDTAVYYCNVVGGRPNPYYDEMDYWGQGPQVTVSS | low polyreactivity |
| QVQLVESGGGLVQAGGSLRLSCAASGFTFDINTMGWYRQAPGKERELVAAITYSGGSTYYADSVKGRFTISRDKAKNTVYLQMNSLKPEDTAVYYCATTWYFVASWYVAIYDYWGQGTQVTVSS | low polyreactivity |
| QVQLVESGGGLVQAGGSLRLSCAASGFTFDIYAMGWYRQAPGKEWELVAAITSGGITNYADSVKGRFTISRDNAKNTVYLQMNSLKPEDTAVYYCAADEYLGFYVSHTDWTKYDYWGQGTQVTVSS | low polyreactivity |
| QVQLVESGGGLVQAGGSLRLSCAASGFTFDKNAMGWYRQAPGKERELVAAINIGSTYYADSVKGRFTISRDNAKNTVYLQMNSLKPEDTAVYYCAKEVPSGYWVNYYYWGQGTQVTVSS | low polyreactivity |
| QVQLVESGGGLVQAGGSLRLSCAASGFTFDKNAMGWYRQAPGKERELVAAITKSGGSTYYADSVKGRFTISRDNAKNTVYLQMNSLKPEETAVYYCNAPPWSRYYYDLLRHDYWGQGTQVTVSS | low polyreactivity |
| QVQLVESGGGLVQAGGSLRLSCAASGFTFDLYAKGWYRQAPGKERELVAVITRGGSTYYADSVKGRFTISRDNAKNTVYLQMNSLKPEDTAVYYCAKYSIIDWWGGEDYWGQGTQVTVSS | high polyreactivity |
| QVQLVESGGGLVQAGGSLRLSCAASGFTFDRNAMGWYRQAPGKERGLVAAISSSGGRTYYADSVKGRFTISRDNAKNTVYLQMNSLKPEDTAVYYCAAVFFSRPSAYGSRYYWGQGTQVTVSS | high polyreactivity |
| QVQLVESGGGLVQAGGSLRLSCAASGFTFDRNAMGWYRQATWKERELVAAITWTGGSTYYADSVKGRFTISRDNAKNTVYLQMNSLKPEDTAVYYCAATLPYSRGWFYYWGQGTQVTVSS | high polyreactivity |
| QVQLVESGGGLVQAGGSLRLSCAASGFTFDRYAMGWYRQAPGKERELVAAISRSGASTYYADSVKGRFTISRDNAKNTVYLQMNSLKPDDTAVYYCAAKQRTKGDYWGQGTQVTVSS | high polyreactivity |

| Sequence | polyreactivity (PSR sort gate) |
| --- | --- |
| QVQLVESGGGLVQAGGSLRLSCAASGFTFDRYTMGWYRQAPGKEWELVAVIRRGGSTYYADSVKGRFTISRDNAKNTVYLQMNSLKPEDTAVYYCNALSALAVEDGYWGQGTQVTVSS | low polyreactivity |
| QVQLVESGGGLVQAGGSLRLSCAASGFTFDSNAMGWYRQAPGKERELGAAISKRGGSTYYADSVKGRFTISRDNAKNTVYLQMNSLKPEDTAVYYCAADNYNSGGTRHMYYWGQGTQVTVSS | high polyreactivity |
| QVQLVESGGGLVQAGGSLRLSCAASGFTFDVYAMGWYRQAPGKERELVATITWSGGSTTYADSVKGRFTISRDNAKNTVYLQMNSLKPEDTAVYYCAADRSVQVTFDYWGQGTQVTVSS | low polyreactivity |
| QVQLVESGGGLVQAGGSLRLSCAASGFTFDWYAMGWSRQAPGKERELVAAISSSGTSRYYADSVKGRFTISRDNAKNTVYLQMNSLKPEDTAVYYCAARWYYVTPLRRYGYWGQGTQVTVSS | high polyreactivity |
| QVQLVESGGGLVQAGGSLRLSCAASGFTFDYYALGWYRQAPGKERELVAAISRGGSTYYADSVKGRFTISRDNGKNTFYLQMNSLKPEDTAVYYCAVSAGKRRLDYWGQGTQVTVSS | high polyreactivity |
| QVQLVESGGGLVQAGGSLRLSCAASGFTFDYYAMGWYRQAPGKERELVAAISVSDSSTYYADSVKGRFTISRDNAKNTGDLQMNSLKPEDTAVYYCAAEYYVGFTYRYEYWGQGTQVTVSS | low polyreactivity |
| QVQLVESGGGLVQAGGSLRLSCAASGFTFDYYAMGWYRQAPGKERELVASITFIGGNTNYADSVKGRFTISRDNAKNTVYLQMNSLKPEDTAVYYCAADFPWDYRYWFEYWGQGTQVTVSS | low polyreactivity |
| QVQLVESGGGLVQAGGSLRLSCAASGFTFEENAMGWYRQAPGKERELVAAINWSGGNTYYADSVKGRFTISRDNAKNTVYLQMNSLKPEDTAVYYCAADSPRYYYWVGPYYGYDYWGQGTQVTVSS | high polyreactivity |
| QVQLVESGGGLVQAGGSLRLSCAASGFTFEGNAMGWYRQAPGKERELVAAISSNGGRTYYADSVKGRFTISRDNAKNTVYLQMNSLKPEDTAVYYCNALRAYSGPDYDYYHGRRYDYWGQGTQVTVSS | low polyreactivity |
| QVQLVESGGGLVQAGGSLRLSCAASGFTFEGYAMGWYRQAPGKERELVASISSGGGTNYADSVKGRFTISRDNAKNTVYLQMNSLKPEDTAVYYCAARAYPYFWTGQKLSRFGYWGQGTQVTVSS | high polyreactivity |
| QVQLVESGGGLVQAGGSLRLSCAASGFTFEIYTMGWYRQAPGKERELVAAISTGGNTKYADSVKGRFTISRDNAKNTVYLQMNSLKPEDTAVYYCAKGRKPGYYYWGQGTQVTVSS | high polyreactivity |
| QVQLVESGGGLVQAGGSLRLSCAASGFTFELYDMGWYRQAPGKERELVARITRSGGSTNYADSVKGRFTISRDNAKNTVYLQMNSLKPEDTAVYYCAAKSPLFGLTSYPGPDDSWGQGTQVTVSS | low polyreactivity |
| QVQLVESGGGLVQAGGSLRLSCAASGFTFERYSMGWYRQAAGKEMELVASISRRSGRTSYADSVKGRFTISRDNAKNTVYLQMKSLIPEDTAVYYCAVDDAYPDGYDYWGQGTQVTVSS | high polyreactivity |
| QVQLVESGGGLVQAGGSLRLSCAASGFTFETNAMGWYRQAHGKERELVATITGGGSTNYADSVKGRFTISRDNAKNTVYLQMNSLKPEDTAVYYCNAVHEASYAGVDYWGQGTQVTVSS | low polyreactivity |
| QVQLVESGGGLVQAGGSLRLSCAASGFTFFENAMGWYRQAPGKERELVAAIRKSGDRTYYADSVKGRFTISRDNAKNTVYLQMNSLKPEDTAVYYCAAPLSLRSSFGSWGQGTQVTVSS | high polyreactivity |
| QVQLVESGGGLVQAGGSLRLSCAASGFTFFGYAMGWYRQEPGKERELVAAISTIDGDTYYADSVKGRFTISRDNAKNSFYFLMNSLKPEDTAVYYCAADDYIDGDDYWGQGTQVTVSS | low polyreactivity |
| QVQLVESGGGLVQAGGSLRLSCAASGFTFFHYAMGWYIQAPGKERELVAAITRSGSSTYYADSVKGRFTISRDNAKNTVYLQMNSLKPEDTAVYYCAADYISRGGYTIEDYWGQGTQVTVSS | low polyreactivity |
| QVQLVESGGGLVQAGGSLRLSCAASGFTFFIYAMGWYRQAPGKERELVAAISLSGTSTYYADSVKGRFTISRDNAKNSVYLQMNSLKPEDTAVYYCAKDGAYWTYYSGYDYWGQVTQVTVSS | low polyreactivity |
| QVQLVESGGGLVQAGGSLRLSCAASGFTFFIYAMGWYRQAPGKERELVAAISWRGDRTYYADSVKGRFTISRDNAKNTVYLQMNSMKPEDTAVYYCAKSVWRRVYYARYDDRHNYWGQGTQVTVSS | high polyreactivity |
| QVQLVESGGGLVQAGGSLRLSCAASGFTFFKYAMGWYRQAPGKERELVAAITRNGGRTYYADSVKGRFTISRDYAKNTVYLQMNSLKPEDTAVYYCNAASVNGGRDFDYWGQGTQVTVSS | high polyreactivity |
